Publication PMC11142304

Assays:
[1] = target: LnaB (recombinant, ITC and AUC) (L. pneumophila); test: ITC
[2] = target: ADP-ribosylated ubiquitin (ADPR-Ub) (UniProt P0CG48); test: ITC

Substance | stoichiometry N [1] | Kd [2] [µM]
Actin (Sangon Biotech, A001041) (from UniProt P60709 1-375) (natural protein) | 0.84 | 
MavL_N322A |  | 5.96
